Laboratory results from paper PMC8367818, “The Taxus genome provides insights into paclitaxel biosynthesis” (Nature Plants, 2021).

Substrate: CC(C)=CCC/C(C)=C/CC/C(C)=C/CC/C(C)=C/COP(=O)(O)OP(=O)(O)O
Test: purified protein
Assay type: biochemical, Taxus chinensis
Conditions: 1 mM MgCl2, 25 mM HEPES pH 8.5, 10% glycerol, 5 mM DTT, 32 °C, 30 min, GGPP spiked with [1-3H]-GGPP

B1: TS1 (Taxus chinensis) (protein)
chain: MSSSTGTSKVVSETSSTIVDDIPRLSANYHGDLWHHNVIQTLETPFRESSTYQERADELVVKIKDMFNALGDGDISPSAYDTAWVARVATISSDGSEKPRFPQALNWVLNNQLQDGSWGIESHFSLCDRLLNTINSVIALSVWKTGHSQVEQGTEFIAENLRLLNEEDELSPDFEIIFPALLQKAKSLGINLPYDLPFIKYLSTTREARLTDVSAAADNIPANMLNALEGLEEVIDWKKIMRFQSKDGSFLSSPASTACVLMNTGDEKCFTFLNNLLDKFGGCVPCMYSIDLLERLSLVDNIEHLGIGRHFKQEIKVALDYVYRHWSERGIGWGRDSLVPDLNTTALGLRTLRTHGYDVSSDVLNNFKDENGRFFSSAGQTHVELRSVVNLFRASDLAFPDEGAMDDARKFAEPYLRDALATKISTNTKLFKEIEYVVEYPWHMSIPRLEARSYIDSYDDDYVWERKTLYRMPSLSNSKCLELAKLDFNIVQSLHQEELKLLTRWWKESGMADINFTRHRVAEVYFSSATFEPEYSATRIAFTKIGCLQVLFDDMADIFATLDELKSFTEGVKRWDTSLLHEIPECMQTCFKVWFKLMEEVNNDVVKVQGRDMLAHIRKPWELYFNCYVQEREWLDAGYIPTFEEYLKTYAISVGLGPCTLQPILLMGELVKDDVVEKVHYPSNMFELVSLSWRLTNDTKTYQAEKARGQQASGIACYMKDNPGATEEDAIKHICRVVDRALKEASFEYFKPSNDIPMGCKSFIFNLRLCVQIFYKFIDGYGIANEEIKDYIRKVYIDPIQV
notes: 60-residue N-terminal (plastid transit) truncation, His-tagged, pET28b, E. coli, purified
  Km: 5.5 ± 1.6 µM
  kcat: 1705 s⁻¹

B2: TS2 (Taxus chinensis) (protein)
chain: SGSPTKLATENANAVAESNLIPRLSANYHGDLWHHGVIQTLQTPYQESSSYQERAEELIVKIKDMFKAVEEGAISPSAYDTAWVARVPDGSEKPRFPQALNWLLHNQLQDGSWGLESHFMLSDRLLSTLNSVISLLVWKTGQQQVEQGTLFITENLKLLEGEDELPPDFEIIFPALLQKAKALGMSLPDHDLPFIKSLSVAREARLASYTDNNIPASMLNALEGLEEVIDWDKIMRFQMPCLYSIDLLERLSLVDNIEHLGIGRHFKQEIKVALDYVYRYWSERGIGLGRDSLIPDLNTTALGLRTLRAHGYNVSSEVLNNFKDENGRFFSSLGQTHVELRSMVNLLRASDLAFPDEPLMDDAKIFAEAYLRDALATRISTNTKLFKEIDYAVEYPWHMSIPRLEARSYIDVYDDDYTWQNKTLYRMSNLSNAYCLELAKLDFNIVQSLHQEELKLLTRWWKESGMADINFTRHRVAEVYFSSATFEPEYSSTRIAFTKIGCLQVLFDDMADIFATLDELRDFTEGVKRWDTSLIHKLPDCMQTCFRVWFNLMEEVNNDVSNVQGRDMLNHIRKPWELYFNCYVQEREWLDAGYIPTLEEYLKTYSISVGLGPCTLQPILLMGDIVKDDVVEKVHYPSNLFELVSLSWRLTNDTKTYQAEKARGQQASGIACYMKDNPGSTEEDAIKYICGVVDRALKEACFEYFKPADDVPMSCKSFIFNLRLCVQIFYKFIDGYGIANEEIKDYIRKVYIEPIQV
notes: as for B1
  Km: 8.6 ± 1.5 µM
  kcat: 3280 s⁻¹
